Assay results from patent US20110319287A1, “MODULATOR ASSAY” (ADDEX PHARMA S.A., priority 2009, published 2011).

T1: TL1A-activated DR3 receptor (Homo sapiens, UniProt Q93038)
T1 construct: (N); expressed in transfected cells; host or cells: HeLa Tet-On cells stably expressing TRADD-EYFP, transfected with pTRE2-DR3 (HeLa TRADD DR3)
T1 sequence (Q93038 with tags, fused parts or gaps P167L): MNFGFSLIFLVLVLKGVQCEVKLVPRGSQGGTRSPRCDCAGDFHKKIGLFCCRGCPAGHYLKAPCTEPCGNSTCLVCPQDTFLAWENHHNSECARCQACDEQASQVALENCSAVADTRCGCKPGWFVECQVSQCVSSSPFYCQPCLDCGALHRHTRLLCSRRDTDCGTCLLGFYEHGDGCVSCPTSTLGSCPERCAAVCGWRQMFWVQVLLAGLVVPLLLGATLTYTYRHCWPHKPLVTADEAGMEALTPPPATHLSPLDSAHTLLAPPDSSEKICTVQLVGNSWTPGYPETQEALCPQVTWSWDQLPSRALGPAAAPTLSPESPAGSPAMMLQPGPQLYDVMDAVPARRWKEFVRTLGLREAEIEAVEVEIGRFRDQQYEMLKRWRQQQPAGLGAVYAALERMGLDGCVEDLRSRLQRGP

T2: TL1A-activated DR3 receptor (Homo sapiens, UniProt Q93038, P167L)
T2 construct: (N); expressed in transfected cells; host or cells: HeLa Tet-On cells stably expressing TRADD-EYFP, transfected with pTRE2-DR3 (HeLa TRADD DR3)
T2 sequence (Q93038 with tags, fused parts or gaps P167L): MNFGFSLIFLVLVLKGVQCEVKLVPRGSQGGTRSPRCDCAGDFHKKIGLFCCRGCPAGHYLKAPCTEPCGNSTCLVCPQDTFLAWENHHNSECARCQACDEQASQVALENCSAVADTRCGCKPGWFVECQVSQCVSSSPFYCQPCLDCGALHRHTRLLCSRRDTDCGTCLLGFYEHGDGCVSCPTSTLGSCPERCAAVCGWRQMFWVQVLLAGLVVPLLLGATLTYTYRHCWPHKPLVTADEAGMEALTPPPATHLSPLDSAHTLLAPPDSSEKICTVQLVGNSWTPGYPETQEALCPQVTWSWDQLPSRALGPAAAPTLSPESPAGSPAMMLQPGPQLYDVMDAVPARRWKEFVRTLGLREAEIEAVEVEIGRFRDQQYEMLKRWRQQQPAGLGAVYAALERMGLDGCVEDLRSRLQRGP


Legend:
[1] = system: TNF-induced relocalisation of EYFP-TRADD (TNFR1-containing complex I) in HeLa cells; assay: TNF-mediated relocation of fluorescently tagged TRADD in Clone #49-E2 HeLa cells, 384-well (Example 2); format: cell-based, human; settings: added instead of TNF; FIG. 12
Experimental: The following experimental procedure to detect the reporter molecule in the presence of absence of a “test” compound (or molecule, as described below) was conducted.
On day 1, 10^3 cells per well were plated in thin glass bottom 384 wells plate in 50 μl of culture media (DMEM glutamax, 10% FBS, peni-strep, geneticin, hygromycin). The cells were incubated overnight at 37° C. On day 2, media was aspirated, and 35 μl of warm DMEM, 2, 5% FBS, HEPES 10 mM added. Then, 15 μl of 4× the test compound diluted in DMEM, 2, 5% FBS, HEPES 10 mM was added to cells using a Biomek laboratory automation workstation (Beckman-Coulter). This was incubated at room temperature for 1.5 min. […] The cells were washed three times with PBS 1× using an Embla 384 Cell Washer (Molecular Devices). Cells were fixed by adding PBS 1×, 5% PFA+Hoescht 0.2 μg/ml using a Multidrop 384 dispensor (Thermo Scientific; 30 μl/well) followed by an incubation for 20 min at room temperature in the dark. After a further three washes of the cells with PBS 1× using the Embla 384 Cell Washer, 60 μl per well of PBS 1×, 1% peni-strep was added. The plate was covered with a transparent sealing film. Readings were then taken on the Scientific Cellomics ArrayScan HCS Reader automated microscope system as used in Example 1.

[2] = system: TNF-induced TRADD relocalisation in HeLa TRADD DR3 cells; assay: TNF-induced TRADD-EYFP relocation in HeLa TRADD DR3 recombinant cells (Example 3); format: cell-based, human; settings: in the presence of 100 ng/ml TNF; FIG. 19
Source text: (§1) In a further example of the present invention, a method involving the TL1A-activated DR3 receptor was developed. The TRADD-EYFP HeLa clones comprising the TRADD-EYFP reporter molecule transfected into HeLa cells as described in Example 1 was employed. The DR3 receptor (cDNA sequence shown in SEQ ID NO: 19 and encoded protein shown in SEQ ID NO: 20) which had been cloned in the vector pCR3.1 (Invitrogen) was transferred into the vector pTre2 (Clontech) using the Gateway® cloning technique with the primers Attb1 Forward primer (SEQ ID NO: 21) and Attb2 Reverse primer (SEQ ID NO: 22), yielding a pTRE2-DR3 expression vector (SEQ ID NO: 23). This expression vector was then transfected into the TRADD-EYFP HeLa clones to produce a double transformants designated HeLa TRADD DR3.
(§2) Monitoring and quantification of the TRADD-EYFP reporter molecule was conducted as described in Examples 1 and 2 above. […] The data of FIG. 17 are depicted graphically in FIG. 18.

[3] = target: T1, TL1A-activated DR3 receptor; assay: TL1A-induced TRADD-EYFP relocation in HeLa TRADD DR3 recombinant cells (Example 3); format: cell-based; settings: in the presence of 300 ng/ml TL1A; FIG. 17
Source text: as §1, §2

[4] = target: T2, TL1A-activated DR3 receptor; assay: as above; format: cell-based; settings: in the presence of 300 ng/ml TL1A; FIG. 17
Source text: as §1, §2

| IC50 on TL1A-induced relocalisation [3] | dose-dependent inhibition of TL1A-induced relocalisation [4] | Molecule | selectivity: relocalisation of the reporter molecule EYFP-TRADD effected by other compounds or molecules [1] | dose-dependent inhibition of TNF-induced relocalisation [2] |
| --- | --- | --- | --- | --- |
|  |  | CD40L: Fc [human]: CD40L [human] from Apotech Corporation (protein, left off: a dimerising Fc or GST, Fc [human]: CD40L [human] from Apotech Corporation) GDQNPQIAAHVISEASSKTTSVLQWAEKGYYTMSNNLVTLENGKQLTVKRQGLYYIYAQVTFCSNREASSQAPFIASLCLKSPGRFERILLRAANTHSSAKPCGQQSIHLGGVFELQPGASVFVNVTDPSQVSHGTGFTSFGLLKL | not effected |  |
| 1.41 µg/mL | dose-dependently inhibited | DcR3: DR3 inhibitor; Recombinant Human DcR3/TNFRSF6B/Fc Chimera from R&D Systems (protein, left off: a dimerising Fc or GST, Recombinant Human DcR3/TNFRSF6B/Fc Chimera from R&D Systems) VAETPTYPWRDAETGERLVCAQCPPGTFVQRPCRRDSPTTCGPCPPRHYTQFWNYLERCRYCNVLCGEREEEARACHATHNRACRCRTGFFAHAGFCLEHASCPPGAGVIAPGTPSQNTQCQPCPPGTFSASSSSSEQCQPHRNCTALGLALNVPGSSSHDTLCTSCTGFPLSTRVPGAEECERAVIDFVAFQDISIKRLQRLLQALEAPEGWGPTPRAGRAALQLKLRRRLTELLGAQDGALLVRLLQALRVARMPGLERSVRERFLPVH |  | not |
